{"source": "patent US20220089758A1", "biological_target": "CD40 protein displayed on cell surface (UniProt P25942)", "sequence (P25942 21-277 limits assumed)": "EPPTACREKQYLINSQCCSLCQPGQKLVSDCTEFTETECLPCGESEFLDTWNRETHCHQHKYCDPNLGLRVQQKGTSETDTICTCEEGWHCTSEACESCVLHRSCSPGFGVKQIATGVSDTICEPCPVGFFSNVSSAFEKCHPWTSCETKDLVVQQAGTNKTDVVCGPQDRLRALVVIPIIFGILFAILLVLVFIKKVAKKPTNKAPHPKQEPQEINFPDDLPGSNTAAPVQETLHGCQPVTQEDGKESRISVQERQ", "experiment": "cell-based or functional assay"}
{"substance": "CP-870893 (antibody)", "values": [{"measurement": "EC50 in activating MoDC assessed by CD86 expression", "result": 4.2, "unit": "nM"}, {"measurement": "EC50 in activating monocyte derived dendritic cell (MoDC) assessed by CD80 expression", "result": 5, "unit": "nM"}]}
